Laboratory results taken from patent US20070172423A1, “Composition and method for modulating vasculogenesis for angiogenesis” (priority 1998, published 2007).

Key:
hSMC = hSMC proliferation assay; format: cell-based, human; conditions: two days, different concentrations
Description: Cell migration assays were performed on growth arrested confluent HMVEC, BAEC or hSMC cells. Cell monolayers were wounded with a rubber policeman and washed with serum-free medium. Dishes were then incubated for 20 hours in serum-free medium containing VEGF165, PDGF-AA, (R&D Systems, Minneapolis USA) or PDGF-CC. Each assay included two dishes per condition and was repeated three times independently. Cells were photographed at 40× magnification, and migration percentage corresponding to the ratio between area of the cells and the total area of the wound (Biocom visiol@b 2000 version 4.52, San Diego). For HMVEC proliferation assay, cells were seeded in 96-well plates (5 wells per condition), and incubated with VEGF, PDGF-AA, or PDGF-CC (50 ng/ml) after serum starvation. After 7 days, viable cells were counted using the cell Titer-glo luminescent cell viability assay. For NIH-3T3 and hSMC proliferation assay, cells cultured in 96-well plates were serum-starved overnight, followed by treatment with growth factors at different concentrations. Two days later, cell numbers were counted and proliferation percentage calculated, using cells cultured in medium containing 10% serum as control. Aortic ring assay was performed as described 51. […] Aortic rings were analysed at day 9 of culturing. […]

PDGF alpha receptors = PDGF alpha receptors (Homo sapiens, UniProt P16234); assay: Binding of radiolabeled truncated PDGF-C to PAE-1 cells expressing PDGF alpha receptors; parameters: expressed in transfected cells; host or cells: porcine aortic endothelial (PAE-1) cells; conditions: 125I-labeled protein, on ice 90 minutes
PDGF alpha receptors, sequence (P16234 24-1089): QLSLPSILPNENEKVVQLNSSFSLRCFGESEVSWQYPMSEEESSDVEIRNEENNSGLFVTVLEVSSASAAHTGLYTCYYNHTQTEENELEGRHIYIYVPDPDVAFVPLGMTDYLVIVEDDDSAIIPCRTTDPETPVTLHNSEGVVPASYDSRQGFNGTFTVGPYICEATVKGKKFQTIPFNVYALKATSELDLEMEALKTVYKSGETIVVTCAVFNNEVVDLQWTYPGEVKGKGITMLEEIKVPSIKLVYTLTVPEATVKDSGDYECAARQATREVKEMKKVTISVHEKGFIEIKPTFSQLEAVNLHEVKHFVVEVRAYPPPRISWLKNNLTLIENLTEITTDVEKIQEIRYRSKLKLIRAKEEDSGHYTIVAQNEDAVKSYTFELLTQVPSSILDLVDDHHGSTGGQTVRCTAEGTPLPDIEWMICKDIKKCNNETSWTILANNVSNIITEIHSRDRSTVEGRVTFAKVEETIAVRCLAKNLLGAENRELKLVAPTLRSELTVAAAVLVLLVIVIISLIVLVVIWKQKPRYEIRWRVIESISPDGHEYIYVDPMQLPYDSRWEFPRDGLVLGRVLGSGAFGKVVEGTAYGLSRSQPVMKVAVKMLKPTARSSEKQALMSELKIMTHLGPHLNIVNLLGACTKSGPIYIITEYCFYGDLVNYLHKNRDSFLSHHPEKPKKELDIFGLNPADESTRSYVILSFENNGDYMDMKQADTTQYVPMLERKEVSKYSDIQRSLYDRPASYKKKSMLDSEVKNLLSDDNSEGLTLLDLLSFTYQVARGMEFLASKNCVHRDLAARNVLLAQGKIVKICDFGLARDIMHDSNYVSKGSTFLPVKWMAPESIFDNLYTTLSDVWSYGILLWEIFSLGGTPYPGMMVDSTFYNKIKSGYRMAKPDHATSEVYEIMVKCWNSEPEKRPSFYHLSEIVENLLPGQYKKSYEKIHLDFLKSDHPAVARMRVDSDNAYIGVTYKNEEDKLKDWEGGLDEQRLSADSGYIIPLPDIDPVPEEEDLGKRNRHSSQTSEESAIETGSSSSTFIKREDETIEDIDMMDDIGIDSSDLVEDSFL
Description: To assess the interactions between truncated PDGF-C and the PDGF alpha and beta receptors, truncated PDGF-C was tested for its capacity to bind to porcine aortic endothelial-1 (PAE-1) cells expressing PDGF alpha or beta receptors, respectively (Eriksson et al., EMBO J, 1992 11:543-550). The binding experiments were performed essentially as described in Heldin et al. (EMBO J, 1988 7:1387 1393). Five micrograms of truncated PDGF-C protein in ten microliters of sodium borate buffer was radiolabeled using the Bolton-Hunter reagent (Amersham) to a specific activity of 4×10^5 cpm/ng. Different concentrations of radiolabeled truncated PDGF-C, with or without added unlabeled protein, in binding buffer (PBS containing 1 mg/ml of bovine serum albumin) was added to the receptor expressing PAE-1 cells plated in 24-well culture dishes on ice for 90 minutes. After three washes with binding buffer, cell-bound ^125I-labeled PDGF-C was extracted by lysis of cells in 20 mM Tris-HCl, pH 7.5, 10% glycerol, 1% Triton X-100. The amount of cell-bound radioactivity was determined in a gamma-counter. Non-specific binding was estimated by including a 100-fold molar excess of truncated PDGF-C in some experiments. […] The binding was specific as radiolabeled PDGF-C was quantitatively displaced by a 100-fold molar excess of unlabeled protein.

PDGF beta receptors = PDGF beta receptors (Homo sapiens, UniProt P09619); assay: Competition with 125I-PDGF-BB for binding to PAE-1 cells expressing PDGF beta-receptor; parameters: expressed in transfected cells; conditions: 5 ng/ml 125I-PDGF-BB tracer, on ice 90 minutes
PDGF beta receptors, sequence (P09619 33-1106): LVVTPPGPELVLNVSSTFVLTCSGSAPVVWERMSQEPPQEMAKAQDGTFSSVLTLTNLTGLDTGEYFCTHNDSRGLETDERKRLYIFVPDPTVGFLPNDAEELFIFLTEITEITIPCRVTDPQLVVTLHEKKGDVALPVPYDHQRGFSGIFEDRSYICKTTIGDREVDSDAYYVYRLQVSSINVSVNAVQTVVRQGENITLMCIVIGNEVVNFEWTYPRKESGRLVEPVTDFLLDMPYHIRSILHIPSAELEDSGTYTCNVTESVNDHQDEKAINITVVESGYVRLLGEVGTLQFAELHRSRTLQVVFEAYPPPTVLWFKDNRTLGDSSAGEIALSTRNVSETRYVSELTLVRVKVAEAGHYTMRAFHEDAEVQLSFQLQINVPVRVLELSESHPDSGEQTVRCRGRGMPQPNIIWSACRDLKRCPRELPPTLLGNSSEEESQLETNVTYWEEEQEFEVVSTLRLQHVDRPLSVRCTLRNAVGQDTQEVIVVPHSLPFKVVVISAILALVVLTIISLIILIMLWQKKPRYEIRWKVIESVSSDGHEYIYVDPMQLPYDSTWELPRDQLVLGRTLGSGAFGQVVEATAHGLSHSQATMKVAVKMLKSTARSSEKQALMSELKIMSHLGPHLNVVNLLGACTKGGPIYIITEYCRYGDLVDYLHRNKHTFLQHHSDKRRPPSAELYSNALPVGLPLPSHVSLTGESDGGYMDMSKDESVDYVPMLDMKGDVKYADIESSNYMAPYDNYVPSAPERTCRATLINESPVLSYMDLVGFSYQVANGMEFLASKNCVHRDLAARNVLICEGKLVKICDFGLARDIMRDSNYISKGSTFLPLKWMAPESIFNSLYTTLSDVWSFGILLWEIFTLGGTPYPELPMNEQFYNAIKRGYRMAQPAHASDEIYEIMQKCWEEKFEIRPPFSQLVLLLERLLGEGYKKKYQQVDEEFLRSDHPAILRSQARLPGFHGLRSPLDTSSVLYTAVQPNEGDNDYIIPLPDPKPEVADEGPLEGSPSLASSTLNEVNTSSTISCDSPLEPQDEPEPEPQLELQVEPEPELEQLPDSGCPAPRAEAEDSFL
Description: Next, full length and truncated PDGF-C were tested for their capacity to bind to human PDGF receptors alpha and beta by analyzing their abilities to compete with PDGF-BB for binding to PDGF receptors. The binding experiments were performed on porcine aortic endothelial-1 (PAE-1) cells stably expressing the human PDGF receptors alpha and beta (Eriksson et al., EMBO J, 1992, 11, 543-550). Binding experiments were performed essentially as in Heldin et al. (EMBO J, 1988, 7:1387-1393). Different concentrations of human full-length and truncated PDGF-C, or human PDGF-BB were mixed with 5 ng/ml of ^125I-PDGF-BB in binding buffer (PBS containing 1 mg/ml of bovine serum albumin). Aliquots were incubated with the receptor expressing PAE-1 cells plated in 24-well culture dishes on ice for 90 minutes. After three washes with binding buffer, cell-bound 125]-PDGF-BB was extracted by lysis of cells in 20 mM Tris-HCl, pH 7.5, 10% glycerol, 1% Triton X-100. The amount of cell bound radioactivity was determined in a gamma-counter. A standard curve for the binding of ^125I-labeled PDGF BB homodimers to PAE-1 cells expressing PDGF alpha-receptor is shown in FIG. 18.

[1] = test system: ischemic gastrocnemius muscle; assay: Hind limb ischemia mouse model (femoral artery ligation); format: in vivo
Excerpt: To further verify the angio/arteriogenic activity of PDGF-CC in vivo, the effect of PDGF-CC in an established mouse model of hind limb ischemia is investigated (Luttun et al., Nat Med, 2002 1:1). PDGFR-α expression was quantified by RNAse protection analysis in the gastrocnemius muscle, which becomes highly ischemic after ligation of the femoral artery (Deindl et al., Circ Res, 2001 89:779-86; Couffinhal et al., American Journal of Pathology, 1998 152:1667-1679). Two days after femoral artery ligation, when a fraction of myocytes died due to ischemic necrosis, PDGFR-α transcript levels decreased to 76% of those found in normal muscles (FIG. 37a). […] Revascularization of the ischemic gastrocnemius muscle, which only occurred in those regions where regenerating muscle replaced the necrotic avascular muscle, was scored after continuous delivery, by osmotic minipump, of 4.5 μg PDGF-CC per day for one week after femoral artery ligation. […] PDGF-CC also enlarged the second-generation collateral side branches in the adductor muscle ([…] after saline versus […] after PDGF-CC; N=10; P=0.05). […] Thus, PDGF-CC stimulates revascularization in mouse models of both heart and limb ischemia.

[2] = 4.5 μg per day for one week after femoral artery ligation

B1: PDGF-CC: recombinant human PDGF-CC core domain homodimer, residues 230-345 of full-length PDGF-C (SEQ ID NO:40), produced in baculovirus infected insect cells (protein)
chain: GRKSRVVDLNLLTEEVRLYSCTPRNFSVSIREELKRTDTIFWPGCLLVKRCGGNCACCLHNCNECQCVPSKVTKKYHEVLQLRPKTGVRGLHKSLTDVALEHHEECDCVCRGSTGG
modifications: homodimer; PDGF-C core domain
- proliferation of cultured hSMC cells (hSMC): stimulated
- binding to cells expressing PDGF alpha receptors (PDGF alpha receptors): binds
- competition for binding to the PDGF beta-receptor (PDGF beta receptors): failed to compete
- hemorrhage, edema or fibrosis in treated limbs ([1]; 4.5 μg per day for one week): No signs of hemorrhage, edema or fibrosis
- angiogenesis (capillary density) [1, 2]: increased
- arteriogenesis (density of SMA+ vessels) [1, 2]: enhanced
- extent of ischemic muscle necrosis [1, 2]: reduced
- skeletal muscle regeneration [1, 2]: enhanced
- second-generation collateral side branches in the adductor muscle ([1]; after femoral artery ligation, N=10): 920±100 μm^3
